Measured values taken from patent US20050203007A1 (REGENTS OF THE UNIVERSITY OF MICHIGAN, published 2005).

Molecular target: T1, human PC7 (human, UniProt Q16549 142-667, limits assumed)
T1 sequence (looked up): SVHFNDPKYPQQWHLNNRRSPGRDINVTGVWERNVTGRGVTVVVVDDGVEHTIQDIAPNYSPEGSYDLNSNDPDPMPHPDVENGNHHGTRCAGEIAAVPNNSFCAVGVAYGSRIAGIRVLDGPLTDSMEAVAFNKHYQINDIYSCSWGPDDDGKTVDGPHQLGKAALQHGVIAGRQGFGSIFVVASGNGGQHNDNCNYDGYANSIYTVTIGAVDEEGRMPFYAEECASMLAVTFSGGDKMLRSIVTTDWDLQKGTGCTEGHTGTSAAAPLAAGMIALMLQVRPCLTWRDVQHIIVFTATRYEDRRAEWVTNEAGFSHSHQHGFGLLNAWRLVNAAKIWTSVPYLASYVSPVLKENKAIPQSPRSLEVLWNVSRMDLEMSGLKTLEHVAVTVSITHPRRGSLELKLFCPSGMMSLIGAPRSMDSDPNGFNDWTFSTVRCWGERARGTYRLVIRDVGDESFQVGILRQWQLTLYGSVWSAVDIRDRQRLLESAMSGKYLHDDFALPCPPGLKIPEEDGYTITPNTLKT
Assay: cell-based or functional assay

% inhibition of enzyme in rapid protease inhibition assay: 70%
B1: R4R1-eglin (designed binder)
chain: SMGSELKSFPEVVGKTVDQAREYFTLHYPQYDVYFLPEGSRVTRDLRYNRVRVFYNPGTNVVNHVPHVG
notes: N-terminal Met removed; also called Tyr49-R4R1-; D33Y49
